In patent US20220089776A1 (OREGON HEALTH AND SCIENCE UNIVERSITY, published 2022):

Legend:
rabbit FXII = biological target: T1, rabbit FXII (rabbit, UniProt G1SIB7 20-617); assay: Western blot of platelet-poor plasma; primary antibody murine 5C12
T1 construct: Plasma protein
T1 sequence: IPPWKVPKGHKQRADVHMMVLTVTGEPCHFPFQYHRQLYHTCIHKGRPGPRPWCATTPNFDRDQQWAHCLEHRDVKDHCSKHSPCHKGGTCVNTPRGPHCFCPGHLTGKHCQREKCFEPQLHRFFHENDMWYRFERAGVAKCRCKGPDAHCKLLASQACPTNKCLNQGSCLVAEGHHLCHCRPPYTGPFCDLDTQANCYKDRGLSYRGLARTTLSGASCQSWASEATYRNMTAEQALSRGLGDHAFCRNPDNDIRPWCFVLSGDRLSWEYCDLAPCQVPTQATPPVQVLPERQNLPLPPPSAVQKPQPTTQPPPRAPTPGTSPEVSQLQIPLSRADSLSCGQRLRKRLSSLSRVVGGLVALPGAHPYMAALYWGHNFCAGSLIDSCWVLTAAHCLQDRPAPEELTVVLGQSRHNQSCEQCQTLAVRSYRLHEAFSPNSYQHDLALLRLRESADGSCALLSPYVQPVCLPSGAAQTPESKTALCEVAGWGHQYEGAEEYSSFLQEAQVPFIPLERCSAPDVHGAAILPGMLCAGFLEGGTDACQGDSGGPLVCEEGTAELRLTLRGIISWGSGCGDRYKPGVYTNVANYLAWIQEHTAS
Excerpt: FIG. 3A-3C: Species specificity of 5C12. (FIG. 3A) Western blots of platelet poor plasmas from different species (indicated above each lane) size fractionated by SDS-PAGE […]. Species included in alphabetical order: African green monkey, baboon, beagle, cat, cattle, chicken, cynomolgus monkey, dog, elephant, giant anteater, horse, human, human deficient in FXII, llama, marmoset, pig, rabbit, raccoon, rat, red kangaroo, rhesus macaque and tiger. Human plasma and human deficient in FXII plasma were used in all gels as a positive and negative control, respectively. […] 5C12 also recognizes both the alpha (comprising both the light and heavy chain of FXII) and the beta (comprising only the light chain and a nonapeptide fragment of the heavy chain) form of activated FXII (FXIIa) (FIG. 3C). The primary antibody for all Western blots was murine 5C12, the secondary antibody was goat-anti-mouse polyclonal.

[1] = biological target: T2, human blood protein factor XII (FXII) (human, UniProt P00748 20-615); assay: cell-based or functional assay
T2 sequence (looked up): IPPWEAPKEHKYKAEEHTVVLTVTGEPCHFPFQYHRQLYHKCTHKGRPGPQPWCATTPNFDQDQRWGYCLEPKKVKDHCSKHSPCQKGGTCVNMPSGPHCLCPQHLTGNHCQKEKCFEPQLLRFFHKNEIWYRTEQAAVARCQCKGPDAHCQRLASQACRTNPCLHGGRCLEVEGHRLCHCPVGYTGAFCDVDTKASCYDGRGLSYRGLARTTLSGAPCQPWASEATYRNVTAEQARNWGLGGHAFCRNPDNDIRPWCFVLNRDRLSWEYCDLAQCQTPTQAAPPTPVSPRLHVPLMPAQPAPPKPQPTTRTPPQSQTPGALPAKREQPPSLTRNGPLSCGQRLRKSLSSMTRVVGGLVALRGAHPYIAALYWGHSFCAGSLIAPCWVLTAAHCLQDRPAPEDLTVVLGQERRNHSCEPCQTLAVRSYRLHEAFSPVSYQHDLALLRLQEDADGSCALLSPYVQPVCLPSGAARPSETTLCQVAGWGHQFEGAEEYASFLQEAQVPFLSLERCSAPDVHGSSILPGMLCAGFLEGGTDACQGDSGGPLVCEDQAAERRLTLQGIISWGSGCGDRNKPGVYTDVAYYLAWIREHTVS

[2] = biological target: T2, human blood protein factor XII (FXII); assay: cell-based or functional assay; remark: listed apart in the source
[3] = biological target: T2, human blood protein factor XII (FXII); assay: cell-based or functional assay; remark: listed apart in the source
[4] = biological target: T3, human activated FXII (FXIIa) (human, UniProt P00748 20-615, limits assumed); assay: cell-based or functional assay
T3 sequence (looked up): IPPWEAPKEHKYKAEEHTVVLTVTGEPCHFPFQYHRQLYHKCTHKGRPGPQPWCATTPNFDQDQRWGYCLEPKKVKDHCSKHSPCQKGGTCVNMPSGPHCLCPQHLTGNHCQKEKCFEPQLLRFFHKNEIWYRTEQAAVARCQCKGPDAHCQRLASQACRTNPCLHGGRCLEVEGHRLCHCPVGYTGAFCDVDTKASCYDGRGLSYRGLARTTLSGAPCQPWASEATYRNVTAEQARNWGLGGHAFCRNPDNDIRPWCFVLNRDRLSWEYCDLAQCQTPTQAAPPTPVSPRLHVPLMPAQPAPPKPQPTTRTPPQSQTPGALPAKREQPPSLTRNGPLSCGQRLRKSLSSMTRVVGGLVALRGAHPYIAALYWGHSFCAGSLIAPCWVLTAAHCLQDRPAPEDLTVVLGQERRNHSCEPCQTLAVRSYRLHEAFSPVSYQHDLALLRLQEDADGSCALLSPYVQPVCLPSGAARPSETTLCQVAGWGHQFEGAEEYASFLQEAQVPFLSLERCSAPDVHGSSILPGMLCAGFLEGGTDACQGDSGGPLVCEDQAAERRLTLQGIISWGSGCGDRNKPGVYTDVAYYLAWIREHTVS

rat FXII = biological target: T4, rat FXII (rat, UniProt D3ZTE0 20-595); assay: Western blot of platelet-poor plasma, non-reduced SDS-PAGE
T4 construct: mature; Plasma protein
T4 sequence (looked up): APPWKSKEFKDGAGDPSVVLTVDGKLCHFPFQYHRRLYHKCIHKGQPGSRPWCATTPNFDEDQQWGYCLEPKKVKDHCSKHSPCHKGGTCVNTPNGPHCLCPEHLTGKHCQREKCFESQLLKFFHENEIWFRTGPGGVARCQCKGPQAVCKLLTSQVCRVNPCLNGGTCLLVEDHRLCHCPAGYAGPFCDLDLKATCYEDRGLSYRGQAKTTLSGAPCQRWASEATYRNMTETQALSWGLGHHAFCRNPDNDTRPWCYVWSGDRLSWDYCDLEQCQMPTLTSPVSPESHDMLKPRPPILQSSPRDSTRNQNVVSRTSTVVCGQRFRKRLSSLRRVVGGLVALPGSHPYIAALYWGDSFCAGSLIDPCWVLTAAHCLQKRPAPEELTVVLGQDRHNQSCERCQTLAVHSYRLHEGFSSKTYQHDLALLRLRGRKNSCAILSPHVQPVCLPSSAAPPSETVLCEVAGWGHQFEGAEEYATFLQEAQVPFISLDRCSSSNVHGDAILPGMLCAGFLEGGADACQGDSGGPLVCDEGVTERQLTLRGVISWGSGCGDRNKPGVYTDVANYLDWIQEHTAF

B1: mouse monoclonal antibody 5C12 (antibody, mouse IgG1, kappa, V domains shown)
VH: DVQLQESGPDLVKPSQSLSLTCTVTGYSITSGYSWHWIRQFPGNNLEWMGYIQYSGNTNSNPSLKSRISITRDTSKNQFFLHLNSVTTEDTATYYCARWGSFDYWGQGTTLTVSS
VL: QIVLTQSPAIMSASPGEKVTMTCSASSSVNYMHWYQQKSGTSPKRWIYDTSKLASGVPARFSGSGSGTSYSLTISSMEAGDAATYYCQQWSGNPPTFGGGTILEIKR
notes: Purified from hybridoma; also called AB053; 5C12 MAb
**Q.** Does B1 bind (rabbit FXII)?
**A.** Result: no binding

**Q.** And the “IC50 (read off the curve): FXIIa amidolytic activity after activation of 40 nM FXII with 1 µg/ml dextran sulfate” value [1]?
**A.** Its value is ~6 nM.

**Q.** What about the “IC50 (read off the curve): FXIIa amidolytic activity after activation of 50 nM FXII with short polyphosphates, PK and HK” value [2] of the same binder?
**A.** Its value is ~10 nM.

**Q.** And the “IC50 (read off the curve): FXIIa amidolytic activity after activation of 50 nM FXII with long polyphosphates, PK and HK” value [3]?
**A.** The value was ~10 nM.

**Q.** What about the “IC50 (read off the curve): amidolytic activity of 20 nM FXIIa” value [4] of the same binder?
**A.** The value was ~7 nM.

**Q.** Does B1 bind (rat FXII)?
**A.** Result: no binding
